In assay [1] the target is T1, human FcγRIIIaV extracellular domain with C-terminal His-tag (human, UniProt P08637 17-208).
T1 construct: also called human FcgRIIIaV; not shown: His-tag added to the C-terminus
Description: SPR (BIACORE), antibody captured, FcgR analyte.
T1 sequence (P08637 17-208 F176V): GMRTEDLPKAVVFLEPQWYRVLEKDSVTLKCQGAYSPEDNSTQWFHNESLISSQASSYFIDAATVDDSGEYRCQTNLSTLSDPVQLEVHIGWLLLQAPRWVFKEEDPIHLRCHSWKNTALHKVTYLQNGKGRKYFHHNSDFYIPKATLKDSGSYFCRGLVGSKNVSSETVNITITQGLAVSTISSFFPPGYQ

The target in assay [2] is T2, human FcγRIIaH extracellular domain with C-terminal His-tag (human, UniProt P12318 34-217).
T2 construct: also called human FcgRIIaH; FcγRIIa type H; not shown: His-tag added to the C-terminus
T2 sequence: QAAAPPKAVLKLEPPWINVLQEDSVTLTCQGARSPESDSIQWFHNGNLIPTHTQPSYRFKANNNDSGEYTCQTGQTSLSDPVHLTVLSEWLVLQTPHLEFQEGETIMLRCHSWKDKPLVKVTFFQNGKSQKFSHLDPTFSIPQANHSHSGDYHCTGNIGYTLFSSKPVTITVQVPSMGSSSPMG
The assay is described as follows: SPR (BIACORE), antibody captured, FcgR analyte.

Assay [3] addresses T3, cynomolgus monkey FcγRIIIaS extracellular domain with C-terminal His-tag (cynomolgus monkey, UniProt A3RFZ7 21-206 (rhesus entry)).
T3 construct: also called cyno FcgRIIIaS; cynoFcγRIIIaS; not shown: His-tag added to the C-terminus
The assay is described as follows: SPR (BIACORE), antibody captured, FcgR analyte.

Assay [4] addresses T3, cynomolgus monkey FcγRIIIaS …. Description: SPR (BIACORE); KD of SG1 / KD of variant.
Assay [5] concerns the target T4, human FcγRIIb extracellular domain with C-terminal His-tag (human, UniProt P31994 43-217).
T4 construct: also called human FcgRIIb; not shown: His-tag added to the C-terminus
T4 sequence: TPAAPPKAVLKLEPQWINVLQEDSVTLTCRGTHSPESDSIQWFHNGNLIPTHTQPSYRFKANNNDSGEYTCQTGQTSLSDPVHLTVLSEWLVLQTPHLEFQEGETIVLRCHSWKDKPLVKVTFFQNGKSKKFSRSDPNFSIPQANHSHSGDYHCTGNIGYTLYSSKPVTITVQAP
Description: SPR (BIACORE), antibody captured, FcgR analyte.

In assay [6] the target is T5, cynomolgus monkey FcγRIIa3 extracellular domain with C-terminal His-tag (cynomolgus monkey).
T5 construct: also called cyno FcgRIIa3; cynoFcγRIIa3; not shown: His-tag added to the C-terminus
T5 chain: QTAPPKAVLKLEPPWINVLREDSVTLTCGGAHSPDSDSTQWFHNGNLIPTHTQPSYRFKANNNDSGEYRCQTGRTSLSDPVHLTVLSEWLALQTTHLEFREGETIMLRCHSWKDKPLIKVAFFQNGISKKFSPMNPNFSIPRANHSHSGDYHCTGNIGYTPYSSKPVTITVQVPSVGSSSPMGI
Description: SPR (BIACORE), antibody captured, FcgR analyte.

In assay [7] the target is T6, human FcγRIIIaV extracellular domain with C-terminal His-tag (human, UniProt P08637 17-208).
T6 construct: also called human FcgRIIIaV; not shown: His-tag added to C-terminus
The assay is described as follows: SPR Biacore, antibody captured, FcgR analyte.
T6 sequence (P08637 17-208 F176V): as the sequence (P08637 17-208 F176V) above

Assay [8] has as its target T7, human FcγRIIaR extracellular domain with C-terminal His-tag (human, UniProt P12318 34-217).
T7 construct: also called human FcgRIIaR; FcγRIIa type R; not shown: His-tag added to the C-terminus
T7 chain: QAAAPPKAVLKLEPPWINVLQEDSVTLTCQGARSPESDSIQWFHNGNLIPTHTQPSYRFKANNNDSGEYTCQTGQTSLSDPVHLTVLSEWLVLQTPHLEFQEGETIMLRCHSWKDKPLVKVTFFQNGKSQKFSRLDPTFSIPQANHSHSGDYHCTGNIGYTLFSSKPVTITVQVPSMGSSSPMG
The assay is described as follows: SPR (BIACORE), antibody captured, FcgR analyte.

B1: M103205H795-MY051/M103202L889-SK1 (antibody, human IgG1, kappa, name in EU numbering)
heavy: QVTLKESGPVLVKPTETLTLTCTVSGIDLSHDDISWVRQAPGKGLEWVGIISYAGSTYYASWAKGRLTISKDTSKNQVVLTMTNMDPVDTATYYCARGVPAYSHGGDLWGQGTLVTVSSASTKGPSVFPLAPSSKSTSGGTAALGCLVKDYFPEPVTVSWNSGALTSGVHTFPAVLQSSGLYSLSSVVTVPSSSLGTQTYICNVNHKPSNTKVDKKVEPKSCDKTHTCPPCPAPELLNGPSVFLFPPKPKDTLMISRTPEVTCVVVDVSEEDGEVKFNWYVDGVEVHNAKTKPREEQYNSTYRVVSVLTVLHQDWLNGKEYKCKVSNKALPAPIEKTISKAKGQPREPQVYTLPPSREEMTKNQVSLTCLVKGFYPSDIAVEWESNGQPENNYKTTPPVLDSDGSFFLYSKLTVDKSRWQQGNVFSCSVMHEALHNHYTQKSLSLSP
light: DIVMTQSPATLSLSPGERATLSCTSSQSVYHANWLSWFQQKPGQPPKLLIYWASTLAYGVPSRFSGSGSGTDFTLTISSLQPEDAATYYCAGGYGGGRYAFGQGTKVEIKRTVAAPSVFIFPPSDEQLKSGTASVVCLLNNFYPREAKVQWKVDNALQSGNSQESVTEQDSKDSTYSLSSTLTLSKADYEKHKVYACEVTHQGLSSPVTKSFNRGEC
notes: Fc variant of MS1032LO06-SG1; positions in EU numbering
For B1, the Kd in assay [1] was 7400 nM; in assay [2] it was 2200 nM; in assay [3], 2100 nM. Also, the “KD fold (SG1 = 1)” value in assay [4] was 0.17 fold.

B2: M103205H795-MY204/M103202L889-SK1 (antibody, human IgG1, kappa, name in EU numbering)
heavy: QVTLKESGPVLVKPTETLTLTCTVSGIDLSHDDISWVRQAPGKGLEWVGIISYAGSTYYASWAKGRLTISKDTSKNQVVLTMTNMDPVDTATYYCARGVPAYSHGGDLWGQGTLVTVSSASTKGPSVFPLAPSSKSTSGGTAALGCLVKDYFPEPVTVSWNSGALTSGVHTFPAVLQSSGLYSLSSVVTVPSSSLGTQTYICNVNHKPSNTKVDKKVEPKSCDKTHTCPPCPAPELLNGPVVFLFPPKPKDTLMISRTPEVTCVVVDVSEEDPEVKFNWYVDGVEVHNAKTKPREELYNSTYRVVSVLTVLHQDWLNGKEYKCKVSNKALPKPIEKTISKAKGQPREPQVYTLPPSREEMTKNQVSLTCLVKGFYPSDIAVEWESNGQPENNYKTTPPVLDSDGSFFLYSKLTVDKSRWQQGNVFSCSVMHEALHNHYTQKSLSLSP
light: DIVMTQSPATLSLSPGERATLSCTSSQSVYHANWLSWFQQKPGQPPKLLIYWASTLAYGVPSRFSGSGSGTDFTLTISSLQPEDAATYYCAGGYGGGRYAFGQGTKVEIKRTVAAPSVFIFPPSDEQLKSGTASVVCLLNNFYPREAKVQWKVDNALQSGNSQESVTEQDSKDSTYSLSSTLTLSKADYEKHKVYACEVTHQGLSSPVTKSFNRGEC
notes: as for B1
B2: the Kd turned out to be 11000 nM in assay [1], 1500 nM in assay [5] and 3500 nM in assay [3].

B3: M103205H795-MY115/M103202L889-SK1 (antibody, human IgG1, kappa, name in EU numbering)
heavy: QVTLKESGPVLVKPTETLTLTCTVSGIDLSHDDISWVRQAPGKGLEWVGIISYAGSTYYASWAKGRLTISKDTSKNQVVLTMTNMDPVDTATYYCARGVPAYSHGGDLWGQGTLVTVSSASTKGPSVFPLAPSSKSTSGGTAALGCLVKDYFPEPVTVSWNSGALTSGVHTFPAVLQSSGLYSLSSVVTVPSSSLGTQTYICNVNHKPSNTKVDKKVEPKSCDKTHTCPPCPAPELLNGPSVFLFPPKPKDTLMISRTPEVTCVVVDVAEEDPEVKFNWYVDGVEVHNAKTKPREEQYNSTYRVVSVLTVLHQDWLNGKEYKCKVSNKALPAPIEKTISKAKGQPREPQVYTLPPSREEMTKNQVSLTCLVKGFYPSDIAVEWESNGQPENNYKTTPMVLDSDGSFFLYSKLTVDKSRWQQGNVFSCSVMHEALHNHYTQKSLSLSP
light: DIVMTQSPATLSLSPGERATLSCTSSQSVYHANWLSWFQQKPGQPPKLLIYWASTLAYGVPSRFSGSGSGTDFTLTISSLQPEDAATYYCAGGYGGGRYAFGQGTKVEIKRTVAAPSVFIFPPSDEQLKSGTASVVCLLNNFYPREAKVQWKVDNALQSGNSQESVTEQDSKDSTYSLSSTLTLSKADYEKHKVYACEVTHQGLSSPVTKSFNRGEC
notes: as for B1
B3: the results for the Kd in assay [5], in assay [6] and in assay [3] were 320 nM, 7600 nM and 850 nM, respectively. For the same molecule, in assay [4], the “KD fold (SG1 = 1)” value worked out at 0.42 fold.

B4: M103205H795-MY209/M103202L889-SK1 (antibody, human IgG1, kappa, name in EU numbering)
heavy: QVTLKESGPVLVKPTETLTLTCTVSGIDLSHDDISWVRQAPGKGLEWVGIISYAGSTYYASWAKGRLTISKDTSKNQVVLTMTNMDPVDTATYYCARGVPAYSHGGDLWGQGTLVTVSSASTKGPSVFPLAPSSKSTSGGTAALGCLVKDYFPEPVTVSWNSGALTSGVHTFPAVLQSSGLYSLSSVVTVPSSSLGTQTYICNVNHKPSNTKVDKKVEPKSCDKTHTCPPCPAPELLNGPSVFLFPPKPKDTLMISRTPEVTCVVVDVSDEDPEVKFNWYVDGVEVHNAKTKPREELYNSTYRVVSVLTVLHQDWLNGKEYKCKVSNTALPKPIEKTISKAKGQPREPQVYTLPPSREEMTKNQVSLTCLVKGFYPSDIAVEWESNGQPENNYKTTPPVLDSDGSFFLYSKLTVDKSRWQQGNVFSCSVMHEALHNHYTQKSLSLSP
light: DIVMTQSPATLSLSPGERATLSCTSSQSVYHANWLSWFQQKPGQPPKLLIYWASTLAYGVPSRFSGSGSGTDFTLTISSLQPEDAATYYCAGGYGGGRYAFGQGTKVEIKRTVAAPSVFIFPPSDEQLKSGTASVVCLLNNFYPREAKVQWKVDNALQSGNSQESVTEQDSKDSTYSLSSTLTLSKADYEKHKVYACEVTHQGLSSPVTKSFNRGEC
notes: substitutions in EU numbering, introduced into M103205H795-SG1
Take B4: the “KD fold (SG1 = 1)” value in assay [7] is 0.09 fold.

B5: M103205H795-MY207/M103202L889-SK1 (antibody, human IgG1, kappa, name in EU numbering)
heavy: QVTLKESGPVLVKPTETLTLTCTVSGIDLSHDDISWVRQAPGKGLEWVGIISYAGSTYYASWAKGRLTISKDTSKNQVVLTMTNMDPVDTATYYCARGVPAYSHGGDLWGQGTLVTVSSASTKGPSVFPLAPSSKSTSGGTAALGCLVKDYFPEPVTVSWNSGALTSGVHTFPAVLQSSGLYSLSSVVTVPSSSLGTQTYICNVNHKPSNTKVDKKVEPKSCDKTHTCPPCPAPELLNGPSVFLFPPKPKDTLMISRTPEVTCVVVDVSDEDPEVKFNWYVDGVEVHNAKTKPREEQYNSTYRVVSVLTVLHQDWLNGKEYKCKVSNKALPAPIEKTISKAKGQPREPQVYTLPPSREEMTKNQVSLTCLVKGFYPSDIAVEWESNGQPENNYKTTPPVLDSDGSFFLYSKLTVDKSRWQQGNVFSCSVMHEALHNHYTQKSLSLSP
light: DIVMTQSPATLSLSPGERATLSCTSSQSVYHANWLSWFQQKPGQPPKLLIYWASTLAYGVPSRFSGSGSGTDFTLTISSLQPEDAATYYCAGGYGGGRYAFGQGTKVEIKRTVAAPSVFIFPPSDEQLKSGTASVVCLLNNFYPREAKVQWKVDNALQSGNSQESVTEQDSKDSTYSLSSTLTLSKADYEKHKVYACEVTHQGLSSPVTKSFNRGEC
notes: as for B1
For the molecule B5, the Kd was determined as 1500 nM in assay [5], 6900 nM in assay [6], 1300 nM in assay [2] and 4100 nM in assay [3].

B6: M103205H795-MY208/M103202L889-SK1 (antibody, human IgG1, kappa, name in EU numbering)
heavy: QVTLKESGPVLVKPTETLTLTCTVSGIDLSHDDISWVRQAPGKGLEWVGIISYAGSTYYASWAKGRLTISKDTSKNQVVLTMTNMDPVDTATYYCARGVPAYSHGGDLWGQGTLVTVSSASTKGPSVFPLAPSSKSTSGGTAALGCLVKDYFPEPVTVSWNSGALTSGVHTFPAVLQSSGLYSLSSVVTVPSSSLGTQTYICNVNHKPSNTKVDKKVEPKSCDKTHTCPPCPAPELLNGPSVFLFPPKPKDTLMISRTPEVTCVVVDVSDEDPEVKFNWYVDGVEVHNAKTKPREELYNSTYRVVSVLTVLHQDWLNGKEYKCKVSNKALPAPIEKTISKAKGQPREPQVYTLPPSREEMTKNQVSLTCLVKGFYPSDIAVEWESNGQPENNYKTTPPVLDSDGSFFLYSKLTVDKSRWQQGNVFSCSVMHEALHNHYTQKSLSLSP
light: DIVMTQSPATLSLSPGERATLSCTSSQSVYHANWLSWFQQKPGQPPKLLIYWASTLAYGVPSRFSGSGSGTDFTLTISSLQPEDAATYYCAGGYGGGRYAFGQGTKVEIKRTVAAPSVFIFPPSDEQLKSGTASVVCLLNNFYPREAKVQWKVDNALQSGNSQESVTEQDSKDSTYSLSSTLTLSKADYEKHKVYACEVTHQGLSSPVTKSFNRGEC
notes: as for B1
For the molecule B6, the Kd in assay [8] worked out at 2100 nM; in assay [5], 1100 nM; in assay [6], 6700 nM; in assay [2], 830 nM; in assay [3] it was 28 nM.
